Sequences and labels used below:
B1: 22063 (protein)
chain: MALPVTALLLPLALLLHAARPQVQLVESGGGLVQPGGSLRLSCAASGFTFTNHAMSWVRQAPGKGLELVSSISGNGRTTYYADSVKGRFTISRDISKNTLDLQMNSLRAEDTAVYYCAKDGGETLVDSRGQGTLVTVSSLEAAAKEDLKNVFPPEVAVFEPSEAEISHTQKATLVCLATGFYPDHVELSWWVNGKEVHSGVCTDPQPLKEQPALNDSRYCLSSRLRVSATFWQNPRNHFRCQVQFYGLSENDEWTQDRAKPVTQIVSAEAWGRADCGFTSESYQQGVLSATILYEILLGKATLYAVLVSALVLMAMVKRKDSRGRAKRSGSGATNFSLLKQAGDVEENPGPTSMDWIWRILFLVGAATGAHSFEEVQLLESGGGLVQPGGSLRLSCAASGFTFSSYAMSWVRQAPGKGLEWVSSISGSGDYIYYADSVKGRFTISRDISKNTLYLQMNSLRAEDTAVYYCAKEGTGANSSLADYRGQGTLVTVSSTRIQNPDPAVYQLRDSKSSDKSVCLFTDFDSQTNVSQSKDSDVYITDKCVLDMRSMDFKSNSAVAWSNKSDFACANAFNNSIIPEDTFFPSPESSCDVKLVEKSFETDTNLNFQNLSVIGFRILLLKVAGFNLLMTLRLWSSRAKRSGSGVKQTLNFDLLKLAGDVESNPGPSRGHMTEYKPTVRLATRDDVPRAVRTLAAAFADYPATRHTVDPDRHIERVTELQELFLTRVGLDIGKVWVADDGAAVAVWTTPESVEAGAVFAEIGPRMAELSGSRLAAQQQMEGLLAPHRPKEPAWFLATVGVSPDHQGKGLGSAVVLPGVEAAERAGVPAFLETSAPRNLPFYERLGFTVTADVEVPEGPRTWCMTRKPGA
B2: 22098 (protein)
chain: MALPVTALLLPLALLLHAARPQVQLVESGGGLVQPGGSLRLSCAASGFTFTNHAMSWVRQAPGKGLELVSSISGNGRTTYYADSVKGRFTISRDISKNTLDLQMNSLRAEDTAVYYCAKDGGETLVDSRGQGTLVTVSSLEGQPKANPTVTLFPPSSEELQANKATLVCLISDFYPGAVTVAWKADGSPVKAGVETTKPSKQSNNKYAASSYLSLTPEQWKSHRSYSCQVTHEGSTVEKTVAPTECSPIKTDVITMDPKDNCSKDANDTLLLQLTNTSAYYMYLLLLLKSVVYFAIITCCLLRRTAFCCNGEKSRAKRSGSGATNFSLLKQAGDVEENPGPTSMDWIWRILFLVGAATGAHSFEEVQLLESGGGLVQPGGSLRLSCAASGFTFSSYAMSWVRQAPGKGLEWVSSISGSGDYIYYADSVKGRFTISRDISKNTLYLQMNSLRAEDTAVYYCAKEGTGANSSLADYRGQGTLVTVSSTRASTKGPSVFPLAPSSKSTSGGTAALGCLVKDYFPEPVTVSWNSGALTSGVHTFPAVLQSSGLYSLSSVVTVPSSSLGTQTYICNVNHKPSNTKVDKRVEPKSCEVKTDSTDHVKPKETENTKQPSKSCHKPKAIVHTEKVNMMSLTVLGLRMLFAKTVAVNFLLTAKLFFLRAKRSGSGVKQTLNFDLLKLAGDVESNPGPSRGHMTEYKPTVRLATRDDVPRAVRTLAAAFADYPATRHTVDPDRHIERVTELQELFLTRVGLDIGKVWVADDGAAVAVWTTPESVEAGAVFAEIGPRMAELSGSRLAAQQQMEGLLAPHRPKEPAWFLATVGVSPDHQGKGLGSAVVLPGVEAAERAGVPAFLETSAPRNLPFYERLGFTVTADVEVPEGPRTWCMTRKPGA
B3: 22075 (protein)
chain: MALPVTALLLPLALLLHAARPQVQLVESGGGLVQPGGSLRLSCAASGFTFTNHAMSWVRQAPGKGLELVSSISGNGRTTYYADSVKGRFTISRDISKNTLDLQMNSLRAEDTAVYYCAKDGGETLVDSRGQGTLVTVSSLEGQPKANPTVTLFPPSSEELQANKATLVCLISDFYPGAVTVAWKADGSPVKAGVETTKPSKQSNNKYAASSYLSLTPEQWKSHRSYSCQVTHEGSTVEKTVAPTECSGRADCGFTSESYQQGVLSATILYEILLGKATLYAVLVSALVLMAMVKRKDSRGRAKRSGSGATNFSLLKQAGDVEENPGPTSMDWIWRILFLVGAATGAHSFEEVQLLESGGGLVQPGGSLRLSCAASGFTFSSYAMSWVRQAPGKGLEWVSSISGSGDYIYYADSVKGRFTISRDISKNTLYLQMNSLRAEDTAVYYCAKEGTGANSSLADYRGQGTLVTVSSTRIQNPDPAVYQLRDSKSSDKSVCLFTDFDSQTNVSQSKDSDVYITDKCVLDMRSMDFKSNSAVAWSNKSDFACANAFNNSIIPEDTFFPSPESSCDVKLVEKSFETDTNLNFQNLSVIGFRILLLKVAGFNLLMTLRLWSSRAKRSGSGVKQTLNFDLLKLAGDVESNPGPSRGHMTEYKPTVRLATRDDVPRAVRTLAAAFADYPATRHTVDPDRHIERVTELQELFLTRVGLDIGKVWVADDGAAVAVWTTPESVEAGAVFAEIGPRMAELSGSRLAAQQQMEGLLAPHRPKEPAWFLATVGVSPDHQGKGLGSAVVLPGVEAAERAGVPAFLETSAPRNLPFYERLGFTVTADVEVPEGPRTWCMTRKPGA
B4: 21990 (protein)
chain: MALPVTALLLPLALLLHAARPQVQLVESGGGLVQPGGSLRLSCAASGFTFTNHAMSWVRQAPGKGLELVSSISGNGRTTYYADSVKGRFTISRDISKNTLDLQMNSLRAEDTAVYYCAKDGGETLVDSRGQGTLVTVSSLEDLKNVFPPEVAVFEPSEAEISHTQKATLVCLATGFYPDHVELSWWVNGKEVHSGVCTDPQPLKEQPALNDSRYCLSSRLRVSATFWQNPRNHFRCQVQFYGLSENDEWTQDRAKPVTQIVSAEAWGRADCGFTSESYQQGVLSATILYEILLGKATLYAVLVSALVLMAMVKRKDSRGRAKRSGSGATNFSLLKQAGDVEENPGPTSMDWIWRILFLVGAATGAHSFEVQLLESGGGLIQPGGSLRLSCAASGFTFSSHAMTWVRQAPGKGLEWVSAISGSGDYTHYADSVKGRFTISRDNSKNTVYLQMNSLRAEDSAVYYCAKDEDGGSLLGHRGQGTLVTVSSTRIQNPDPAVYQLRDSKSSDKSVCLFTDFDSQTNVSQSKDSDVYITDKCVLDMRSMDFKSNSAVAWSNKSDFACANAFNNSIIPEDTFFPSPESSCDVKLVEKSFETDTNLNFQNLSVIGFRILLLKVAGFNLLMTLRLWSSRAKRSGSGVKQTLNFDLLKLAGDVESNPGPSRGHMTEYKPTVRLATRDDVPRAVRTLAAAFADYPATRHTVDPDRHIERVTELQELFLTRVGLDIGKVWVADDGAAVAVWTTPESVEAGAVFAEIGPRMAELSGSRLAAQQQMEGLLAPHRPKEPAWFLATVGVSPDHQGKGLGSAVVLPGVEAAERAGVPAFLETSAPRNLPFYERLGFTVTADVEVPEGPRTWCMTRKPGA
B5: 22064 (protein)
chain: MALPVTALLLPLALLLHAARPQVQLVESGGGLVQPGGSLRLSCAASGFTFTNHAMSWVRQAPGKGLELVSSISGNGRTTYYADSVKGRFTISRDISKNTLDLQMNSLRAEDTAVYYCAKDGGETLVDSRGQGTLVTVSSLEGGGGSGGGGSGGGGSVEDLKNVFPPEVAVFEPSKAEIAHTQKATLVCLATGFYPDHVELSWWVNGKEVHSGVCTDPQPLKEQPALNDSRYCLSSRLRVSATFWQNPRNHFRCQVQFYGLSENDEWTQDRAKPVTQIVSAEAWGRADCGITSASYHQGVLSATILYEILLGKATLYAVLVSALVLMAMVKRKDSRGRAKRSGSGATNFSLLKQAGDVEENPGPTSMDWIWRILFLVGAATGAHSFEEVQLLESGGGLVQPGGSLRLSCAASGFTFSSYAMSWVRQAPGKGLEWVSSISGSGDYIYYADSVKGRFTISRDISKNTLYLQMNSLRAEDTAVYYCAKEGTGANSSLADYRGQGTLVTVSSTRIQNPDPAVYQLRDSKSSDKSVCLFTDFDSQTNVSQSKDSDVYITDKCVLDMRSMDFKSNSAVAWSNKSDFACANAFNNSIIPEDTFFPSPESSCDVKLVEKSFETDTNLNFQNLSVIGFRILLLKVAGFNLLMTLRLWSSRAKRSGSGVKQTLNFDLLKLAGDVESNPGPSRGHMTEYKPTVRLATRDDVPRAVRTLAAAFADYPATRHTVDPDRHIERVTELQELFLTRVGLDIGKVWVADDGAAVAVWTTPESVEAGAVFAEIGPRMAELSGSRLAAQQQMEGLLAPHRPKEPAWFLATVGVSPDHQGKGLGSAVVLPGVEAAERAGVPAFLETSAPRNLPFYERLGFTVTADVEVPEGPRTWCMTRKPGA

Five molecules from US20230212319A1, “NOVEL ANTIGEN BINDING DOMAINS AND SYNTHETIC ANTIGEN RECEPTORS INCORPORATING THE SAME” (University of Southern California, priority 2020, published 2023) can be followed below.

The subject of this assay is L363 cells. The assay is described as follows: JNG assay, co-culture with L363 cells. The assay is classed as cell-based. As to conditions: co-culture with L363. Here is the method: Cellular supernatant is collected and assayed for the induction of cytokines (e.g., IL2).
JNG (Jurkat cells expressing EGFP under an NFAT promoter) were infected with lentiviral vectors encoding different single chain and multi-chain SARs by spinfection in the presence of 8 µg/ml of Polybrene® (Sigma, Catalog no. H9268). The Jurkat-NFAT-GFP cells are engineered in such a way that the IL-2 promoter, which carries NFAT binding sites, is cloned upstream of the GFP gene. These cells have been used to study signaling via TCR and CAR. The different SARs were stably expressed in Jurkat NFAT-GFP cells by lentiviral mediated gene transfer, followed by selection with puromycin or blasticidin. No drug selection was used in case the construct lacked an antibiotic resistance gene. The SAR-expressing Jurkat-NFAT-GFP cells were cocultured with the target cells at E:T ratio of approximately 1:2 for approximately 4 hours to 18 hours. When the interaction between SIRs and their target antigen results in activation of the NFAT pathway, GFP expression is induced. […] GFP expression was monitored by FACS analysis. The Jurkat-NFAT-GFP (parental) cells were used as control. The structure of different constructs can be determined based on their names. […] The sequence of the other constructs in the table can be similarly determined from their names and by referring to the different Tables of this disclosure that provide the names and SEQ ID NO of the different modules. Alternatively, the composition and modular architecture of the different SAR constructs can be determined from their sequences by bioinformatics tools, including using nucleic acid and amino acids homology searches. A SAR is considered positive in the assay in case the SAR expressing Jurkat-NFAT-GFP cells show greater % GFP positive cells when cultured with the target cell line as compared to parental Jurkat-NFAT-GFP cells. […] In general, the number +/-, +, 2+, 3+, 4+, 5+ refer to approximately 5%, 10%, 20%, 30%, 40% and 50% GFP positive cells. The % of GFP induction in the above assay is dependent not only the relative strength of the SAR but also, among other factors, on the relative level of expression of the SAR in the JNG cells and the relative level of expression of the target antigen in the target cell line. To control for the difference in gene transduction efficiency of the different SAR constructs, the experiment was conducted with JNG cells transduced with SAR constructs co-expressing a drug resistance gene (e.g., puromycin or PAC) followed by drug selection to generate a stable population of SAR-expressing cells. It is to be noted that the drug resistance gene (e.g., PAC) in the SAR constructs is optional and in vivo studies were conducted with SAR constructs lacking the PAC gene.
In the case of B1, the “NFAT-GFP ASSAY: L363” value is “L363 (+/-) (refer to approximately 5%, 10%, 20%, 30%, 40% and 50% GFP positive cells)”. With B2 the entry was “L363 (4+) (refer to approximately 5%, 10%, 20%, 30%, 40% and 50% GFP positive cells)”; with B3, “+/- (refer to approximately 5%, 10%, 20%, 30%, 40% and 50% GFP positive cells)”; with B4, “+ (refer to approximately 5%, 10%, 20%, 30%, 40% and 50% GFP positive cells)”. With B5 the entry was “L363 (+/-) (refer to approximately 5%, 10%, 20%, 30%, 40% and 50% GFP positive cells)”.
